The data set can be described thus: yeast display, Sf9 membrane polyspecificity reagent, FACS + sequencing; frameworks hold sequencing errors. An outline of the steps: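 After 36–48 hours of galactose induction, yeast (Saccharomyces cerevisiae BJ5465) displaying a synthetic nanobody library were stained at 4 °C for 1 hour with 10% biotinylated, detergent-solubilized Sf9 membrane reagent. Streptavidin microbeads enriched the stained cells before FACS sorting into low and high (top ~1%) gates on anti-HA and streptavidin fluorescence. Each clone's polyreactivity label reflects its gate of origin.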
Take “QDQLVESGGGLVQAGGSLSLSCAASGRTFYDYAMGWYRQAPGKERELVAAISRSGGRTYYADSVKGRFTISRDNAKNTVYLQMNSLKPEDTAVYYCNAVRYVLGYSYDYNYWGQGTQVTVSS”: the “polyreactivity (PSR sort gate)” value is given as “high polyreactivity”. For the sequence “QDQLVESGGGLVQAGGTLRLSCAATGSTFTNYAMGWYRQAPGKERELVAALTSVGSTYYADSVKGRFTISRDNAKNTVYLQTNSLKAEDTAVYYCNVVYRDQYNYWGQGTQVTVSS”, the “polyreactivity (PSR sort gate)” value was “low polyreactivity”. As for “QDQLVESGGGLVQAGGTLSLSSAASVIIFYDNAMGWSRQAPGKEREYVAAISRSGTTTYYADSVKGRFTISRDNAKNTVYLQMNSLKPEDTAVYYCAARWVYYHAIFEYWGQGTQVTVSS”, the “polyreactivity (PSR sort gate)” value is “high polyreactivity”. Take “QDQLVESGGGLVQAGVSLRISCAASGYIFGFYARGWYRQAPGIERELVAAISKSGGNTYYADSVKGRFTISRDNANNTVSLQMNSLKPEDTAVYYCAADSYRYKYNYWGQGTQVTGSS”: the “polyreactivity (PSR sort gate)” value is recorded as “high polyreactivity”. For the sequence “QDQLVESGGGLVQARGSLRLSCAASGSIYSRNALGWYRQAPGKERELVAAITYRGGNTYYADSVKGRFTISRDNANNNLYLQMNSLKPEDTAVYYCAADTYGWLYAFEYWGQGTQVTVSS”, the “polyreactivity (PSR sort gate)” value is recorded as “low polyreactivity”. To “QDQLVESGGGLVQEGGSLRLSCAASGRIFYFNARGWYRQAPGKERELVADISSGGRTNYADSVKGRFTFSRDNAKNSVYVQMNSEKPEDTAVYYCNSEPYTSSGGYRGYDFDYWGQGSQVTVSS” belongs “low polyreactivity”. For the sequence “QDQLVESGGGLVQEGGSLRLSCAASGRTFKHYVMGWYRQAPGKERELVATICGGGGTYYADSVKGRFTISRDNAKNSVYLQMISLKPEDTAVYYCAARYPRGSRTWSFDSNKQRDYWGQGTQVTVSS”, the “polyreactivity (PSR sort gate)” value is “low polyreactivity”. To “QDQLVESGGGLVQGGGSLRLSCAASGRIFSPYAMGWYRQAPGKEREVVAAITSASSTYYADSVKGRFTISRDNAKNTVYLQMNSLKPEDTAVNYCAASYWRYGSAFDYWGHGTQVTVSS” belongs “high polyreactivity”; to “QDQLVESGGGLVQSGGSLRLSCAASGSTFYYYAMGWYRQAPGKERELVAAITSSTGRTYYADSVKGRFTISRDNAKYTVYLQMNSLKPEDTAVYYCITRRGSLSGLYVYSIQGYDYWGQGTQVTVSS”, “low polyreactivity”; to “QDQLVESGGGTVQAGGSLRISCAASGSILRSNAMGWYRQAPAKERELVAAITQSGGSTFYADSVKGRFTITRDNAKNTVYLQMNSLKPEDTAVYYWGQGTQVTVSS”, “low polyreactivity”. For “QDQLVESGGGVVQAGGSLRLSCAASGRISIWYAMGWYRQAPGKERELVARISTSSGRTYYADSVKGRFTISRDNAKNTVYLQMNSLKPEDTAVYYCNAAGYRIYFSTRYDYWGQGTQVTVSS”, the “polyreactivity (PSR sort gate)” value is “high polyreactivity”. Take “QDQLVESGGVLVQAGGSLRLSCAASGRIFVYNAMGWYRQAPGKERELVATIDYSGGSTYYADSVKGRFTNSRDYAKNTVYLQINSLKPEDPAVYYCNADWSVYAYDSWGQGTQVTVSS”: the “polyreactivity (PSR sort gate)” value was “low polyreactivity”. In the case of “QDQLVESGPGLVQAGGSLRLSCAPSGRIFTVYAMGWYRQAPGKERELVAAIDWSDGSTYYADSVKGRFTISRDNAKNTVYLHMNSLKPEATAVYYCAAETYWVVEYDYWGQGTQVTVSS”, the “polyreactivity (PSR sort gate)” value is reported as “high polyreactivity”. Take “QDQLVESGRGLVQAGGSLRLSCAASASIFTKYTMVWYRQAPGKERELVAAITLRGTSTYYADSVKGRFTISRDNAKKTVYLQKNSLKPEDTAVYYCNILYSWVVAYDYWGQGTQVTLSS”: the “polyreactivity (PSR sort gate)” value is “high polyreactivity”. To “QDQLVESGRGLVQAGGSLRLSCAASGSTFSYYAIGWYRQAPGKERELVAAISRRGGSTYYADSVKGRFTISRDNAKNSVYLQMNSLKPEDTAVYYCNRVTYTGYDSWGQGTQVTVSS” belongs “high polyreactivity”.

For “QDQLVESGVGIVQAGRSLRLSCAASGFTFSGYAMGWDRQAPGKERELVAAINWRGDSTYYADSVKGRFTISRDNAKNTVYLQMNSLKPEDTAVYYCNVVLGPQRYSTDYGYWGQGTQVTVSS”, the “polyreactivity (PSR sort gate)” value is listed as “high polyreactivity”. With “QDQLVESGVGLVQAGGSHRLSSAASGSTFRRNTMGWYRQAPGKERELVAAISNGGRTYYADSVKGRFTISRDNAKNTVYLQMNRLKPEDTAVYYCNKVRSPWYDSWGQGTQVTVSS”, the “polyreactivity (PSR sort gate)” value is on record as “high polyreactivity”. Regarding “QDQLVESGVGLVQAGGSLRLSCAASGRTFYYNTMGWYRPAPGKETEFVATITSTHDTNYADSVKGRFTISRDNAKNSVYLQMNSLKPEDTAVYYCAKGYLNYGRDWDFDYWGHGTQVTVSS”, the “polyreactivity (PSR sort gate)” value is “low polyreactivity”. With “QDQLVESGVGLVQAGGSLRLSCAASGSIFHGNAMGWYRQAPGKERELVATISSGGSTYYADSVKGRFTISRDNAKNTVYLQMNSLKPEDTAVYYCAAERFWPYKSYYWGQGTQVTVSS”, the “polyreactivity (PSR sort gate)” value is recorded as “low polyreactivity”. The value for “QDQLVESGVGLVQEGGSLRLSCAASGSILKRYVMGWYRQAPGKERELVAAISSGSRTYYADSVKGRFTISRDNAKNTVYLQMNSLKPEDTAVYYCAADLTYKYHYDYWGQGTQVTVSS” was “high polyreactivity”; that for “QDQLVESRAGLVQAGGSLRLSCADTGNIFDFNAIGSYRQAPGKERELVAAISQRGTRTYYADSVKGRFTISRDNAKNTVYLQMKSLKPDYTAVYYCNRGGWRQYDSWGQGTQVTVSS” was “high polyreactivity”; that for “QDQLVESVGGLDQAGGSLRLSCAASGLIFQSYVMGWYRQAPGKERELVAAISSSVGSTHYADSVKGRFTISRDNAKNTVYLQMNSLKPEDTAVYYCAVEDYYADSGVEYDYWGQGTQVTVSS” was “low polyreactivity”. For the sequence “QDQLVESVGGLVQAGGSLRLSCAASGRTLVRYVMGWYRQAPGKERELVAAISARTGSTYYADSVKGRFTISRDNAKNTVYLQMNSLKPEDTAVYYCATKFSSYDTRVSYDYWGQGTQVTVSS”, the “polyreactivity (PSR sort gate)” value is on record as “low polyreactivity”. For “QDQLVESVVGLVQAGGSLSLSCDSSARTFWYNAMGCYRQAPGKEREFVAAISSSGGTTYYADSVKGRFTISRDNAKNTVYLQMNSLKPEDTAVYYCAKRFSLLSTVRWGRYNYWGQGTQVTVSS”, the “polyreactivity (PSR sort gate)” value is on record as “high polyreactivity”. On to “QDQLVESWGGLVQAGGSLRLICASSGSNIGYNAMGWYRPAPVKERELVAAISYSGGSTYYADSVKGRFTISRDNAKNTVYFRMNSLKPEDTAVYYCNKYIRRYLIYGSWGQGSQVTVSS”, for which the “polyreactivity (PSR sort gate)” value is “high polyreactivity”.

In the case of “QDQLVESWGGLVQAVGSLRLSCAASGSTFEDYGMGWNRQAPGKERQFVAAIRYSGSSKYADSVKGRFTISRDNAKNTVFLLMKSLIPEDTAVYYCAKYGVRVGFGYSSEYFGQGTQVTVSS”, the “polyreactivity (PSR sort gate)” value is “low polyreactivity”. As to “QDQLVETGVGLVQAGGSLLLSCAPSAITFRGYAMGWYRQAPGKEREYVAAITSGSSTYYADSVKGRFTISRDNAKNTVYLQMNSLKPEDTAVYYCAAERTKSFKLTRPGSMDYWGQGTQVTVSS”, the “polyreactivity (PSR sort gate)” value is “low polyreactivity”. With “QDQLVQSGLGLVQAGGSLRLSCAASGITFYWYTIAWYRQATGKERELVAAISRRGGSTSYADSVKGRFTISRDNAKNTVYLQMNSLKPEDTAVYYCAKTPGWTDYDYWGQGTQVTVSS”, the “polyreactivity (PSR sort gate)” value is “high polyreactivity”.

In the case of “QDQQVESGGGLVQAGGSLRLSSAASGRTFGTYALGWYRQARGNERELVAAITKSGGSTYYADSVKGRFIISRDNAKNTVYLQMNSLKPEDTAVYYCAAAVPRYRVYYWGQGTQVTVSS”, the “polyreactivity (PSR sort gate)” value is “high polyreactivity”. On to “QDQRVESGGGLVQAGGSLRLSCAASGRIFSWYAMGWYRQAPGQERELVAAIDSGGRTNYADSVKGRFTISRDNAKNTVYLQMNSLKPEDTAVYYCAKEGYWPRYWERFDYWGQGTQVTVSS”, for which the “polyreactivity (PSR sort gate)” value is recorded as “low polyreactivity”. Consider “QDQRVESGGGLVQAGGSLRLSCAASGRTISVYAMGWYRQAPGKERELVAAIRTSGGITYYADSVKGRFTISRDNAKNTVYLQMNSLKPEDTAVYYCAAETFRHDSYTRYYYWGQGTQVTVSS”, for which the “polyreactivity (PSR sort gate)” value is reported as “high polyreactivity”. Turning to “QEQHVESAGGLVQAGGSLRLSCAASASIIYKYAMGWYRQAPGKERELVAAINSGGRTYYADSVKGRFTISRDNAKNTVYLQMNSLKPEDTAVYYCNAGTYYPGRYDYWGQGTQVTVSS”, the “polyreactivity (PSR sort gate)” value is “high polyreactivity”. “QEQLQESGGGLGQAGGSLRLSCAASGSISSDVLMGWHRQAPGKERELVAAIGIGANTYYADSVKGRFTISRDNAKNTVYPQMNSLKPEDTAVYYCATGRYSGADNYWGQGTQVTVSS”: the “polyreactivity (PSR sort gate)” value is on record as “high polyreactivity”. As for “QEQLQESGGGLVQAGGSLRLSCAASGNITLDTAMGWSRQAPRKEREFVASINDGGITNYADSVKGRFTICRDNAKNSVYLQMNSLKPEDTAVFYCAARWIWRGYDYWGQGTQVTVSS”, the “polyreactivity (PSR sort gate)” value is recorded as “high polyreactivity”. With “QEQLQESGGGLVQAGGSLRMSCAASGTIFSEANKGWYRQAPGKERELVATIGQGSTTNYADSVKGRFTISRDNAKNTVYLQMNSLKPEETAVYYCAVVTVDPVGFVYWGQGTQVTVSS”, the “polyreactivity (PSR sort gate)” value is on record as “low polyreactivity”. “QEQLQESGGGQVQAGGSLLLSCAASGNIIRYYYMGWYRQAPGKERELVAAINVGAITYYADSVKGRFSISRDNAKNTVYLPMNSLTPEDTAVYYCAVDQYSEAYYDYWGQGTQATVSS”: the “polyreactivity (PSR sort gate)” value was “high polyreactivity”.

For “QEQLQESVVCQVQAGRSLHLSCAASGNIIRYSYMGWYRQAPGNERELVAAITYGTSTNYADSVKGRFTISRDHAKNTVYLQMTSLKPEDTAVYYCAVDVNYGDPLDNWCQGTQVTVSS”, the “polyreactivity (PSR sort gate)” value was “high polyreactivity”. For the sequence “QEQLVESGGGIVQAGGTLRLSGADSGSIFVKNAMGWYRQAHGKERQWVARITYSGGSTYYADSVKGRFTISRDNAKNTVYLQMNSLKPEDTAVYYCAARYWYFPQPYYPGNDYWGQGTQVTVSS”, the “polyreactivity (PSR sort gate)” value is “high polyreactivity”. For the sequence “QEQLVESGGGLVQAGGSLRLSCAASGSIRYYAMGWDRQAPGKESELVATITRGGSTYYADSVKGRFTISRDNAKNTVYLQMNSLKPEDTAVYYCAARRAVRVGYYWHDISSYDYWGQGTQVTVSS”, the “polyreactivity (PSR sort gate)” value is “low polyreactivity”. Regarding “QEQLVESGGGLVQAGGTLRLSCDASVSTQWYNAMGWYRQAPGKERELVATITAGGGSTYYADSVKGRFTISRDNAKNTVYLQMNSLKREDTAVYYCATRYTPAQLDYWGQGTQVTVSS”, the “polyreactivity (PSR sort gate)” value was “low polyreactivity”. For the sequence “QEQLVETVVGLVQARGSLRLRSAASGITFRKYAMRWYRQAPGKERDFVAAITRGGRTYYADSVKGRFTISRENAKNTVYLQMNSLKPEDTAVYYCAACTVVYAGSTYLQPFDYWGQGTQVTVSS”, the “polyreactivity (PSR sort gate)” value is given as “high polyreactivity”.

The values are drawn from the nanobody polyreactivity screen of Harvey et al. (2022).
